From PMC11893383 (Frontiers in Immunology, 2025)

What was measured:
Assay in all cases: ELISA
Conditions in all cases: both partners purified
[1] = biological target: SARS-CoV-2 wild-type (WT) receptor-binding domain (RBD) (SARS-CoV-2, wild type (Wuhan-Hu-1 …, UniProt P0DTC2))
[2] = biological target: T1, angiotensin-converting enzyme-2 (ACE2), biotinylated (Homo sapiens, assumed, UniProt Q9BYF1, biotin)
T1 construct: also called host protein

[3] = biological target: SARS-CoV-2 wild-type (WT) N-terminal domain (NTD) of the spike protein (SARS-CoV-2, wild type (Wuhan-Hu-1 …, UniProt P0DTC2))

T1 sequence (Q9BYF1 18-805): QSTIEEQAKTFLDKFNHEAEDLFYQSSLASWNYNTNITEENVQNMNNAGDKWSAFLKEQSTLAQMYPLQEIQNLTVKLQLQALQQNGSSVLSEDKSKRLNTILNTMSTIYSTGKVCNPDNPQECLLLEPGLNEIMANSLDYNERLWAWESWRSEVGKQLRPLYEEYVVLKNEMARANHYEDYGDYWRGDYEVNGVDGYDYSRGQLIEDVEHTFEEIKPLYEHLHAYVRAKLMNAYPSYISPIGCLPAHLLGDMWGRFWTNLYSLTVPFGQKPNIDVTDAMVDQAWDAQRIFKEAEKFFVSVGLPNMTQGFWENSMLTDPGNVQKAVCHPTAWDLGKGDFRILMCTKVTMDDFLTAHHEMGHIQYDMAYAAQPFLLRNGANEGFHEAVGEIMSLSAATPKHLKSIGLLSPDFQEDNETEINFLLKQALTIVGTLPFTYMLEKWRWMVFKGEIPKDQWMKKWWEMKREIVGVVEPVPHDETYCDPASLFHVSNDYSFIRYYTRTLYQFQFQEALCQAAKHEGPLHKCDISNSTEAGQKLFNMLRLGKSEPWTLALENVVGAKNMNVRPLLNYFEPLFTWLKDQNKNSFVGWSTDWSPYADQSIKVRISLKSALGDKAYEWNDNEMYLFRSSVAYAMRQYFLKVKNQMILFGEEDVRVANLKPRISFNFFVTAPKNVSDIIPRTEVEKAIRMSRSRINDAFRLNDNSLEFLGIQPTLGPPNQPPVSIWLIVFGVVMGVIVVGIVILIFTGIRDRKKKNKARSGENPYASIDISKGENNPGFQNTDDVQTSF

| Binder | binding result [1] | binding result [2] | binding result [3] |
| --- | --- | --- | --- |
| AB5-20 (antibody, V domains shown) VH: QVQLVESGGGVVQPGRSLRLSCTASGFTFRHYGLHWVRQAPGKGLEWVAVILYDGSDEDYRDSVKGRFTISRDNSKNTLYLQMNSLRPEDTAVYYCAKQSGPYCSGGNCYSGHFDYWGQGTPVSVSS VL: DIQMTQSPSSLSASVGDRVTITCQASQDISKSLSWYEQKPGKAPRLLIFEASNLETGVPSRFSGSGSGTSFSFTISSLQPEDFATYYCQQYDNVPLTFGGGTKVERK | binds | no binding |  |
| AB6-17 (antibody, V domains shown) VH: QLQLQESGPGLVESSETLSLTCTVSSGSISRSTYYWGWIRQPPGKGMEWIGSISSGGSTYYNPSLNSRVTISIDTSKNQFSLKLRSVTAADTAVYYCARALQWPSPRIDYWAQGTLVTVSS VL: DIQMTQSPSSLSASVGDRVTITCRASQSISSYLNWYQHKPGKAPKLLIYAASSLESGVPSRFTGSGSGTDFTLTIDSLQPEDFATYYCQQSYSTPLFTFGPGTTVDIK | binds | no binding |  |
| AB5-16 (antibody, V domains shown) VH: QALMVQSEAAVKKPGASVKVSCKATGDAFSNHYLHWLRQAPGQGLEWLGIINPGAGSTTYAQKFQGRLTVTTDTSTNTVYMELSSLRSDDTAVYYCARDGAFIPSSYYYGMDVWGQGTTVTVSS VL: EIVLTQSPGTLALSPGERATLSCRASQSVSSSYLAWYQQKPGQAPRLLIYGASSRATGVPDRFSGSGSGTDFTLTVSSLEPEDFAVYYCQQREAFGQGTKVEVK | binds | no binding |  |
| AB5-5 (antibody, V domains shown) VH: QISLKESGPTLVQPTQTLTLTCTFSGFSLSSSGVGVGWIRQPPGKALEWLALLYWNDDKRYSPSLRTRLTITKDSSKNQVVLTMTNMDPMDTATYYCAHPRQTTVTTVFGLYPRPAAFDVWGPGTMVTVSS VL: QSFLTQPPSVSGAPGQRVTISCTGSSSNIGAGYGVDWYQQLPGTAPKLLIYDNNNRPSGVPDRFSGSTSGTSASLAITGLHAEDEADYYCQSYDRSLSGSVVFGGGTKLTVL | no binding |  | no binding |
| AB5-12 (antibody, V domains shown) VH: QVQLQESGPGLVRPSQALSLTCTVSGGSISSEGYYWGWIRQHPGKGLEWIGYIYYTGNAYYNPSLQSRIDISVDTSANQFSLRLNSVTAADTAVYYCASDSFKGGFDSWGQGALVTVSS VL: EIVLTQSPTTLSLSPGERATLSCRASQTVSGSVAWYQQKPGQAPRLVIYDVSYRATGIPARFSGSGSGTDFTLTISSLEPEDFAVYYCQERRKAFGQGTTVEIK | no binding |  | no binding |
